Assay results as given in article PMC12550018, “High-resolution native electrophoresis in-gel activity assay reveals biological insights of medium-chain fatty acyl-CoA dehydrogenase deficiency” (Scientific Reports, 2025).

What was measured:
[1] = molecular target: the molecule itself; assay: native gel or EMSA; high-resolution clear native PAGE (hrCN-PAGE) of purified recombinant protein, 4-16% or 4-20% gradient gels, pH 7.0, cathode buffer with 0.05% sodium deoxycholate and 0.01% n-dodecyl-beta-D-maltoside; Coomassie, FAD fluorescence and acyl-CoA:NBT in-gel activity staining
[2] = molecular target: the molecule itself; assay: SEC; Superdex 200 5/150 GL, 2 mg/ml protein, 0.1 ml PBS/min, 5 °C, absorbance at 280 nm; mass by calibration with protein standards

| Protein | binding result [1] | stoichiometry N [2] |
| --- | --- | --- |
| Glutaryl-CoA dehydrogenase (GCDH), human recombinant wild type (enzyme, UniProt Q92947 45-438, looked up, Glutaryl-CoA dehydrogenase, human, wild type; source: purified by a procedure similar to that for MCAD (E. coli, MBPTrap, TEV digestion, SEC)) RPEFDWQDPLVLEEQLTTDEILIRDTFRTYCQERLMPRILLANRNEVFHREIISEMGELGVLGPTIKGYGCAGVSSVAYGLLARELERVDSGYRSAMSVQSSLVMHPIYAYGSEEQRQKYLPQLAKGELLGCFGLTEPNSGSDPSSMETRAHYNSSNKSYTLNGTKTWITNSPMADLFVVWARCEDGCIRGFLLEKGMRGLSAPRIQGKFSLRASATGMIIMDGVEVPEENVLPGASSLGGPFGCLNNARYGIAWGVLGASEFCLHTARQYALDRMQFGVPLARNQLIQKKLADMLTEITLGLHACLQLGRLKDQDKAAPEMVSLLKRNNCGKALDIARQARDMLGGNGISDEYHVIRHAMNLEAVNTYEGTHDIHALILGRAITGIQAFTASK | binds |  |
| Medium-chain specific acyl-CoA dehydrogenase (MCAD), human recombinant wild type (enzyme, UniProt P11310-1 26-421, looked up, Medium-chain specific acyl-CoA dehydrogenase (MCAD), human, encoded by ACADM; One FAD per monomer; also called MCAD WT; human recombinant MCAD; not shown: MBP, N-terminal, cleaved) KANRQREPGLGFSFEFTEQQKEFQATARKFAREEIIPVAAEYDKTGEYPVPLIRRAWELGLMNTHIPENCGGLGLGTFDACLISEELAYGCTGVQTAIEGNSLGQMPIIIAGNDQQKKKYLGRMTEEPLMCAYCVTEPGAGSDVAGIKTKAEKKGDEYIINGQKMWITNGGKANWYFLLARSDPDPKAPANKAFTGFIVEADTPGIQIGRKELNMGQRCSDTRGIVFEDVKVPKENVLIGDGAGFKVAMGAFDKTRPVVAAGAVGLAQRALDEATKYALERKTFGKLLVEHQAISFMLAEMAMKVELARMSYQRAAWEVDSGRRNTYYASIAKAFAGDIANQLATDAVQILGGNGFNTEYPVEKLMRDAKIYQIYEGTSQIQRLIVAREHIDKYKN |  | 4 |
| MCAD variant p.K329E, human recombinant (enzyme, UniProt P11310-1 26-421, looked up, MCAD, human, encoded by ACADM, clinically relevant variant p.K329E made by site-directed mutagenesis in pMALc2X; masses fit the mature protein (26-421); The residue number counts on the precursor; also called MCAD K329E; not shown: MBP, N-terminal, cleaved) KANRQREPGLGFSFEFTEQQKEFQATARKFAREEIIPVAAEYDKTGEYPVPLIRRAWELGLMNTHIPENCGGLGLGTFDACLISEELAYGCTGVQTAIEGNSLGQMPIIIAGNDQQKKKYLGRMTEEPLMCAYCVTEPGAGSDVAGIKTKAEKKGDEYIINGQKMWITNGGKANWYFLLARSDPDPKAPANKAFTGFIVEADTPGIQIGRKELNMGQRCSDTRGIVFEDVKVPKENVLIGDGAGFKVAMGAFDKTRPVVAAGAVGLAQRALDEATKYALERKTFGKLLVEHQAISFMLAEMAMEVELARMSYQRAAWEVDSGRRNTYYASIAKAFAGDIANQLATDAVQILGGNGFNTEYPVEKLMRDAKIYQIYEGTSQIQRLIVAREHIDKYKN |  | 4 |
| MCAD variant p.R206C, human recombinant (enzyme, UniProt P11310-1 26-421, looked up, MCAD, human, encoded by ACADM, clinically relevant variant p.R206C made by site-directed mutagenesis in pMALc2X; masses fit the mature protein (26-421); The residue number counts on the precursor; Native MS: only three FAD per tetramer; also called MCAD R206C; not shown: MBP, N-terminal, cleaved) KANRQREPGLGFSFEFTEQQKEFQATARKFAREEIIPVAAEYDKTGEYPVPLIRRAWELGLMNTHIPENCGGLGLGTFDACLISEELAYGCTGVQTAIEGNSLGQMPIIIAGNDQQKKKYLGRMTEEPLMCAYCVTEPGAGSDVAGIKTKAEKKGDEYIINGQKMWITNGGKANWYFLLACSDPDPKAPANKAFTGFIVEADTPGIQIGRKELNMGQRCSDTRGIVFEDVKVPKENVLIGDGAGFKVAMGAFDKTRPVVAAGAVGLAQRALDEATKYALERKTFGKLLVEHQAISFMLAEMAMKVELARMSYQRAAWEVDSGRRNTYYASIAKAFAGDIANQLATDAVQILGGNGFNTEYPVEKLMRDAKIYQIYEGTSQIQRLIVAREHIDKYKN |  | 4 |
| MCAD variant p.Y67H, human recombinant (enzyme, UniProt P11310-1 26-421, looked up, MCAD, human, encoded by ACADM, clinically relevant variant p.Y67H made by site-directed mutagenesis in pMALc2X; masses fit the mature protein (26-421); The residue number counts on the precursor; also called MCAD Y67H; not shown: MBP, N-terminal, cleaved) KANRQREPGLGFSFEFTEQQKEFQATARKFAREEIIPVAAEHDKTGEYPVPLIRRAWELGLMNTHIPENCGGLGLGTFDACLISEELAYGCTGVQTAIEGNSLGQMPIIIAGNDQQKKKYLGRMTEEPLMCAYCVTEPGAGSDVAGIKTKAEKKGDEYIINGQKMWITNGGKANWYFLLARSDPDPKAPANKAFTGFIVEADTPGIQIGRKELNMGQRCSDTRGIVFEDVKVPKENVLIGDGAGFKVAMGAFDKTRPVVAAGAVGLAQRALDEATKYALERKTFGKLLVEHQAISFMLAEMAMKVELARMSYQRAAWEVDSGRRNTYYASIAKAFAGDIANQLATDAVQILGGNGFNTEYPVEKLMRDAKIYQIYEGTSQIQRLIVAREHIDKYKN |  | 4 |
